Assay results published in paper PMC9672952.

Legend:
[1] = biological target: RseP from Enterococcus faecalis V583, without His-tag (Enterococcus faecalis V583) (UniProt Q9RPP2)
[2] = biological target: RseP from Enterococcus faecium P21, without His-tag (Enterococcus faecium P21) (UniProt I3U2R6)
[3] = biological target: RseP from Lactiplantibacillus plantarum WCFS1, without His-tag (Lactiplantibacillus plantarum WCFS1)
[4] = biological target: RseP from Lactococcus lactis IL1403, without His-tag (Lactococcus lactis IL1403)
[5] = biological target: RseP from Staphylococcus arlettae LMGT 4134, without His-tag (Staphylococcus arlettae LMGT 4134)
[6] = biological target: RseP from Staphylococcus aureus ATCC 14458, without His-tag (Staphylococcus aureus ATCC 14458)
[7] = biological target: RseP from Staphylococcus haemolyticus, without His-tag (Staphylococcus haemolyticus)
[8] = biological target: EfmRseP with substitution D372A (Enterococcus faecium P21) (UniProt I3U2R6); experiment: flow cytometry on cells; noninduced L. plantarum cells expressing the RseP variant, 1 μM FITC-labeled EntK1 in 100 μM triammonium citrate pH 6.5, 20 min, room temperature; median fluorescence intensity relative to cells expressing EfmRseP (rMFI), triplicate
[9] = biological target: EfmRseP with substitution E19A (Enterococcus faecium P21) (UniProt I3U2R6); experiment: as above
[10] = biological target: EfmRseP with substitution H18A (Enterococcus faecium P21) (UniProt I3U2R6); experiment: as above
[11] = biological target: EfmRseP with substitution H22A (Enterococcus faecium P21) (UniProt I3U2R6); experiment: as above
[12] = biological target: EfmRseP with substitution N364A (Enterococcus faecium P21) (UniProt I3U2R6); experiment: as above
[13] = biological target: EfmRseP with substitution P367A (Enterococcus faecium P21) (UniProt I3U2R6); experiment: as above
[14] = biological target: EfmRseP with substitution P369A (Enterococcus faecium P21) (UniProt I3U2R6); experiment: as above
[15] = biological target: EfmRseP with the triple alanine substitution of the HExxH motif (Enterococcus faecium P21) (UniProt I3U2R6); experiment: as above
[16] = biological target: Fusion of EfmRseP (1–221) and LpRseP (222–425) (Enterococcus faecium P21 | Lactiplantibacillus plantarum WCFS1) (UniProt I3U2R6); experiment: as above
[17] = biological target: Fusion of EfmRseP (1–325) and LpRseP (326–425) (Enterococcus faecium P21 | Lactiplantibacillus plantarum WCFS1) (UniProt I3U2R6); experiment: as above
[18] = biological target: Fusion of LpRseP (1–171, 326–425) and EfmRseP (172–325) (Lactiplantibacillus plantarum WCFS1 | Enterococcus faecium P21) (UniProt I3U2R6); experiment: as above
[19] = biological target: Fusion of LpRseP (1–201, 328–425) and EfmRseP (202–327) (Lactiplantibacillus plantarum WCFS1 | Enterococcus faecium P21) (UniProt I3U2R6); experiment: as above
[20] = biological target: RseP from Enterococcus faecium P21, C-terminal 6× His-tag (Enterococcus faecium P21) (UniProt I3U2R6); experiment: as above
[21] = biological target: RseP from Lactiplantibacillus plantarum WCFS1, C-terminal 6× His-tag (Lactiplantibacillus plantarum WCFS1); experiment: as above
[22] = biological target: Truncation of EfmRseP (1–39, 139–422) Δ40–138 (Enterococcus faecium P21) (UniProt I3U2R6); experiment: as above

## FITC-labeled Enterocin K1 (peptide)
[1]
  MIC50 of FITC-EntK1 (growth inhibition, microtiter plate) towards L. plantarum expressing this RseP: 0.6 µM
[2]
  MIC50 of FITC-EntK1 (growth inhibition, microtiter plate) towards L. plantarum expressing this RseP: 0.15 µM
[3]
  MIC50 of FITC-EntK1 (growth inhibition, microtiter plate) towards L. plantarum expressing this RseP: > 20 µM
[4]
  MIC50 of FITC-EntK1 (growth inhibition, microtiter plate) towards L. plantarum expressing this RseP: > 20 µM
[5]
  MIC50 of FITC-EntK1 (growth inhibition, microtiter plate) towards L. plantarum expressing this RseP; footnote: low expression may contribute: > 20 µM
[6]
  MIC50 of FITC-EntK1 (growth inhibition, microtiter plate) towards L. plantarum expressing this RseP; footnote: low expression may contribute: > 20 µM
[7]
  MIC50 of FITC-EntK1 (growth inhibition, microtiter plate) towards L. plantarum expressing this RseP: > 20 µM
[8]
  rMFI % (relative median fluorescence intensity): 80.6%
[9]
  rMFI % (relative median fluorescence intensity): 65.4%
[10]
  rMFI % (relative median fluorescence intensity): 61.6%
[11]
  rMFI % (relative median fluorescence intensity): 59%
[12]
  rMFI % (relative median fluorescence intensity): 83.4%
[13]
  rMFI % (relative median fluorescence intensity): 89.1%
[14]
  rMFI % (relative median fluorescence intensity): 84.4%
[15]
  rMFI % (relative median fluorescence intensity): 0.5%
[16]
  rMFI % (relative median fluorescence intensity): 37.6%
[17]
  rMFI % (relative median fluorescence intensity): 97.6%
[18]
  rMFI % (relative median fluorescence intensity): 78%
[19]
  rMFI % (relative median fluorescence intensity): 54.8%
[20]
  rMFI % (relative median fluorescence intensity): 100%
[21]
  rMFI % (relative median fluorescence intensity): 0.41%
[22]
  rMFI % (relative median fluorescence intensity): 7.4%
